Measured values from paper doi:10.1101/2022.12.03.518990.
Where two headings read alike, the source gives them in different places.

Tests used:
[1] = biological target: GMPCPP-stabilized microtubules (TAMRA-labeled, polymerized from bovine brain tubulin) (bovine) (UniProt Q6B856); experiment: single-molecule TIRF microscopy, dwell times
[2] = biological target: GMPCPP-stabilized microtubules (TAMRA-labeled, polymerized from bovine brain tubulin) (bovine) (UniProt Q6B856); experiment: single-molecule TIRF microscopy, dwell times; remark: listed apart in the source

Sequence of UniProt Q6B856 (Q6B856 whole entry, looked up): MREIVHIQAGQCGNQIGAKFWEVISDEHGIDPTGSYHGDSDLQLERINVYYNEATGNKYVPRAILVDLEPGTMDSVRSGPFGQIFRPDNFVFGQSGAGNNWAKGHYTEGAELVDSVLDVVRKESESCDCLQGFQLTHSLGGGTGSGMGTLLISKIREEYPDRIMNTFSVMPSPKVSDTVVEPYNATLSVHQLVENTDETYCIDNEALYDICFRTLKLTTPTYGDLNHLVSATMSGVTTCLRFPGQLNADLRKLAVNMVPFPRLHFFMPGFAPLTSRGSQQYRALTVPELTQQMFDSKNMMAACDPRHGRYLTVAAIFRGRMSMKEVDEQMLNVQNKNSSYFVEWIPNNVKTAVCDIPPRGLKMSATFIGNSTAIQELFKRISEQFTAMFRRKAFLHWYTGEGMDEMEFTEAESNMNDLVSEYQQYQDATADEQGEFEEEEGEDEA

- mean dwell time [1]: 3.8 s
- mean dwell time [2]: 0.53 s
Substance: His-EGFP-L-TOG2-S (EGFP-tagged TOG2 domain and serine-arginine-rich region of human CLASP2α) (domain or fragment)
